For one assay, the target named is HLA-B*15:42. Nature of the assay: IEDB peptide-MHC binding, purified MHC/competitive/fluorescence; filed as Kd, often an IC50 or EC50 that approximates it; ≥ and ≤ were set here for values at or beyond the usual limits of such assays.
The next assay has as its target HLA-C*04:01. Described as above. The settings on record: source organism: Yersinia pestis CO92.
The next assay concerns the target HLA-B*83:01. Described as above.
The target of a further assay is HLA-B*45:06. The assay is described as above.
The next assay concerns the target HLA-B*27:20. The description is as above.
Another assay concerns the target HLA-B*73:01. Described as above. The settings on record: source organism: Vibrio cholerae V52.
Assay [1] has as its target HLA-A*02:01. Put plainly: IEDB peptide-MHC binding, cellular MHC/competitive/fluorescence; ≥ and ≤ were set here for values at or beyond the usual limits of such assays. The settings on record: source organism: Measles morbillivirus.
A further assay deals with HLA-B*27:03. Nature of the assay: IEDB peptide-MHC binding, purified MHC/competitive/fluorescence; filed as Kd, often an IC50 or EC50 that approximates it; ≥ and ≤ were set here for values at or beyond the usual limits of such assays. The note with it: source organism: Burkholderia mallei SAVP1.
Assay [2] addresses HLA-B*51:01. The description is as above. The note with it: source organism: Burkholderia mallei SAVP1.
Assay [3] deals with HLA-B*57:01. Described as above. The note with it: source organism: Burkholderia mallei SAVP1.
Assay [4] addresses HLA-A*29:02. The description is as above. The settings on record: source organism: Burkholderia mallei SAVP1.
In assay [5] the target is HLA-A*26:01. The description is as above. The note with it: source organism: Burkholderia mallei SAVP1.
For assay [6], the target named is HLA-A*03:01. The assay is described as above. The settings on record: source organism: Burkholderia mallei SAVP1.
Another assay addresses HLA-B*46:01. Described as above. The settings on record: source organism: Burkholderia mallei SAVP1.
The next assay deals with HLA-B*15:17. The assay is described as above. The note with it: source organism: Burkholderia mallei SAVP1.
Another assay concerns the target HLA-A*02:11. The assay is described as above. The settings on record: source organism: Burkholderia mallei SAVP1.
The target of assay [7] is HLA-A*02:01. The assay is described as above. The settings on record: source organism: Burkholderia mallei SAVP1.
Assay [8] has as its target HLA-B*18:01. The assay is described as above. The settings on record: source organism: Burkholderia mallei SAVP1.
Assay [9] deals with HLA-A*69:01. The description is as above. The note with it: source organism: Burkholderia mallei SAVP1.
For assay [10], the target named is HLA-A*68:02. Described as above. The note with it: source organism: Burkholderia mallei SAVP1.
The target in a further assay is HLA-C*08:02. Nature of the assay: IEDB peptide-MHC binding, purified MHC/direct/fluorescence; filed as Kd, often an IC50 or EC50 that approximates it; ≥ and ≤ were set here for values at or beyond the usual limits of such assays. The note with it: source organism: Burkholderia mallei SAVP1.
The target in assay [11] is HLA-B*51:01. Nature of the assay: IEDB peptide-MHC binding, purified MHC/competitive/fluorescence; ≥ and ≤ were set here for values at or beyond the usual limits of such assays. The settings on record: source organism: Homo sapiens.
Another assay has as its target HLA-B*40:02. The description is as above. The note with it: source organism: Homo sapiens.
The target in a further assay is HLA-B*07:02. Described as above. The settings on record: source organism: Homo sapiens.
For the next assay, the target named is HLA-B*08:01. Described as above. The settings on record: source organism: Homo sapiens.
A further assay deals with HLA-B*37:01. The assay is described as above. The note with it: source organism: Homo sapiens.
The next assay deals with HLA-A*31:01. The assay is described as above. The settings on record: source organism: Homo sapiens.
Assay [12] has as its target HLA-A*29:02. The assay is described as above. The settings on record: source organism: Homo sapiens.
Another assay addresses HLA-A*25:01. Described as above. The note with it: source organism: Homo sapiens.
In assay [13] the target is HLA-A*03:01. Described as above. The settings on record: source organism: Homo sapiens.
Another assay concerns the target HLA-A*24:02. Described as above. The settings on record: source organism: Homo sapiens.
The target in a further assay is HLA-B*53:01. The assay is described as above. The note with it: source organism: Homo sapiens.
The target in a further assay is HLA-B*35:01. The assay is described as above. The note with it: source organism: Homo sapiens.
Another assay concerns the target HLA-A*11:01. The description is as above. The note with it: source organism: Homo sapiens.
A further assay has as its target HLA-B*14:02. The description is as above. The note with it: source organism: Homo sapiens.
The target in the next assay is HLA-A*01:01. The assay is described as above. The settings on record: source organism: Homo sapiens.
The target in the next assay is HLA-B*58:01. The description is as above. The settings on record: source organism: Homo sapiens.
Assay [14] concerns the target HLA-A*02:01. The description is as above. The settings on record: source organism: Homo sapiens.
The target of assay [15] is HLA-B*18:01. Described as above. The note with it: source organism: Homo sapiens.
In a further assay the target is HLA-B*44:03. The assay is described as above. The note with it: source organism: Homo sapiens.
In assay [16] the target is HLA-A*68:02. Described as above. The note with it: source organism: Homo sapiens.
In assay [17] the target is HLA-C*14:02. Nature of the assay: IEDB peptide-MHC binding, purified MHC/direct/fluorescence; filed as Kd, often an IC50 or EC50 that approximates it; ≥ and ≤ were set here for values at or beyond the usual limits of such assays. The note with it: source organism: Homo sapiens.
Assay [18] concerns the target HLA-C*14:02. Put plainly: IEDB peptide-MHC binding, purified MHC/competitive/fluorescence; filed as Kd, often an IC50 or EC50 that approximates it; ≥ and ≤ were set here for values at or beyond the usual limits of such assays. The settings on record: source organism: Coxiella burnetii RSA 493.
Another assay has as its target HLA-C*06:02. Described as above. The settings on record: source organism: Coxiella burnetii RSA 493.
In assay [19] the target is HLA-B*57:01. Put plainly: IEDB peptide-MHC binding, purified MHC/direct/fluorescence; filed as Kd, often an IC50 or EC50 that approximates it; ≥ and ≤ were set here for values at or beyond the usual limits of such assays. The note with it: source organism: Coxiella burnetii Q321.
The target in a further assay is HLA-C*07:02. Described as above. The note with it: source organism: Coxiella burnetii RSA 493.
Assay [20] addresses HLA-A*29:02. Described as above. The note with it: source organism: Coxiella burnetii Q321.
Assay [21] addresses HLA-A*26:01. The assay is described as above. The settings on record: source organism: Coxiella burnetii Q321.
In assay [22] the target is HLA-A*03:01. Described as above. The note with it: source organism: Coxiella burnetii Q321.
The target in assay [23] is HLA-B*18:01. The description is as above. The settings on record: source organism: Coxiella burnetii Q321.
For assay [24], the target named is HLA-A*69:01. Described as above. The settings on record: source organism: Coxiella burnetii Q321.
Where [25] appears, read: source organism: Yersinia pestis CO92.
Where [26] appears, read: source organism: Coxiella burnetii RSA 493.

For FRDRGQHVL, the Kd was no less than 5 µM with HLA-B*15:42 (setting [25]); no less than 5 µM in the assay with HLA-C*04:01; no less than 5 µM with HLA-B*83:01 (setting [25]); no less than 5 µM with HLA-B*45:06 (setting [25]); 0.0004 µM with HLA-B*27:20 (setting [25]).
NRTQGGLRA displayed a Kd with HLA-B*73:01 of 0.136 µM.
QLPEATFMV displayed an IC50 with HLA-A*02:01 [1] of 2 µM. This counts as single-digit micromolar.
Regarding RLDARLQVL, the Kd is no less than 20 µM with HLA-B*27:03; no less than 20 µM in the assay with HLA-B*51:01 [2]; no less than 20 µM with HLA-B*57:01 [3]; 1.02 µM in the assay with HLA-A*29:02 [4]; no less than 20 µM in the assay with HLA-A*26:01 [5]; no less than 20 µM in the assay with HLA-A*03:01 [6]. Also, the Kd was no less than 20 µM in the assay with HLA-B*46:01; no less than 20 µM with HLA-B*15:17; 0.0011 µM with HLA-A*02:11; 0.0074 µM in the assay with HLA-A*02:01 [7]; no less than 20 µM in the assay with HLA-B*18:01 [8]; no less than 20 µM with HLA-A*69:01 [9]. In addition, the Kd with HLA-A*68:02 [10] is no less than 20 µM; with HLA-C*08:02, 0.082 µM.
Regarding SLMASSPTSI, the IC50 was no less than 20 µM with HLA-B*51:01 [11]; no less than 20 µM with HLA-B*40:02; 2.51 µM with HLA-B*07:02; no less than 20 µM with HLA-B*08:01; no less than 20 µM in the assay with HLA-B*37:01; no less than 20 µM with HLA-A*31:01. The 50% inhibitory concentration (IC50) with HLA-A*29:02 [12] is 1.21 µM; with HLA-A*25:01, no less than 20 µM; in the assay with HLA-A*03:01 [13] it was no less than 20 µM; with HLA-A*24:02 it was 1.24 µM; in the assay with HLA-B*53:01, no less than 20 µM; in the assay with HLA-B*35:01 it was no less than 20 µM. The IC50 in the assay with HLA-A*11:01 is no less than 20 µM; with HLA-B*14:02, no less than 20 µM; with HLA-A*01:01, no less than 20 µM; in the assay with HLA-B*58:01, no less than 20 µM; with HLA-A*02:01 [14] it was 0.0208 µM; with HLA-B*18:01 [15] it was no less than 20 µM. The IC50 with HLA-B*44:03 is no less than 20 µM; with HLA-A*68:02 [16], 1.01 µM. The sequence further gave an equilibrium dissociation constant (Kd) in the assay with HLA-C*14:02 [17] of 1.12 µM.
For YRATYSMAL, the Kd with HLA-B*15:42 (setting [26]) is no less than 5 µM; in the assay with HLA-B*83:01 (setting [26]), no less than 5 µM; with HLA-B*45:06 (setting [26]), no less than 5 µM; with HLA-C*14:02 [18] it was 0.119 µM; in the assay with HLA-B*27:20 (setting [26]), 0.0007 µM; with HLA-C*06:02, 0.0061 µM. Also, the dissociation constant Kd was no less than 20 µM in the assay with HLA-B*57:01 [19]; 0.08 µM in the assay with HLA-C*07:02; no less than 20 µM in the assay with HLA-A*29:02 [20]; no less than 20 µM with HLA-A*26:01 [21]; no less than 20 µM in the assay with HLA-A*03:01 [22]; no less than 20 µM with HLA-B*18:01 [23]. Also, the equilibrium dissociation constant (Kd) with HLA-A*69:01 [24] was no less than 20 µM.

The values are drawn from the Immune Epitope Database (IEDB).
